Measurements taken from publication PMC12307597.

Molecular target: pFAST_(99-114)–FRB–pFAST_(1-98)
Assay: split reporter

percent complementation at 5 μM HBR-2,5DM without rapamycin: < 6.5%
Substance: FKBP–pFAST_(115-125)
